From paper PMC8034623 come the findings set out here.

Substitutions are numbered along the chain they refer to. Numbers in names are those of the source. Read-outs that look alike come from different tables or passages of the source.

Holding throughout (assay): EMSA
Data set [1] has as its target T1, LuxR (Vibrio alginolyticus, UniProt B4X9Q4 1-204).
T1 sequence: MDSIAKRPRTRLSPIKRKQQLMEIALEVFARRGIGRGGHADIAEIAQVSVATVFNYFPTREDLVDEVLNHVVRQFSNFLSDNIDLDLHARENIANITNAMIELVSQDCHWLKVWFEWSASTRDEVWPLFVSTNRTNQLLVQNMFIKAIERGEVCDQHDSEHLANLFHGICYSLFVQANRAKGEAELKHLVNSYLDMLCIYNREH

Data set [2] addresses T2, LuxR ΔLuxR-arm (Vibrio alginolyticus, UniProt B4X9Q4 12-204, del2-11).
T2 sequence: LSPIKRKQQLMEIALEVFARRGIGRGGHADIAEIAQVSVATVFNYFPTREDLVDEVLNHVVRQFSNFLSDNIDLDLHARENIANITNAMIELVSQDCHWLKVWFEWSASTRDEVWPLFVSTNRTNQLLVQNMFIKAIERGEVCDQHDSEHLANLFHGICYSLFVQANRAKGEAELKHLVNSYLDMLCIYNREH

In data set [3] the target is T3, LuxR R11A (Vibrio alginolyticus, UniProt B4X9Q4 1-204, R11A).
T3 sequence: T1 sequence with R11A

The target in data set [4] is T4, LuxR R9A (Vibrio alginolyticus, UniProt B4X9Q4 1-204, R9A).
T4 sequence: T1 sequence with R9A

Data set [5] addresses T5, LuxR R9/11A (Vibrio alginolyticus, UniProt B4X9Q4 1-204, R9A;R11A).
T5 sequence: T1 sequence with R9A, R11A

Data set [6] has as its target T6, LuxR K16A (Vibrio alginolyticus, UniProt B4X9Q4 1-204, K16A).
T6 sequence: T1 sequence with K16A

For data set [7], the target named is T1, LuxR. This is another data set of the same source.
Data set [8] addresses T1, LuxR. This is another data set of the same source.

B1: GC-rich control 51-bp (dsDNA)
DNA 1: CTAAATTTATCAATACCGCGTCACGGAGGGGTGCGCCATTGTTCTACAGAT
DNA 2: ATCTGTAGAACAATGGCGCACCCCTCCGTGACGCGGTATTGATAAATTTAG
Regarding B1, in data set [1], the binding result is “no binding”.

B2: actDNA 51-bp probe (dsDNA)
DNA 1: CTAAATTTATCAATAATAATGACATTACTGTATATAAATTGTTCTACAGAT
DNA 2: ATCTGTAGAACAATTTATATACAGTAATGTCATTATTATTGATAAATTTAG
Turning to B2, the binding result in data set [2], in data set [3] and in data set [5] was “no binding” throughout. For the same molecule, the Kd in data set [1] worked out at 449 nM; in data set [4], 698 nM; in data set [6] it was 329 nM.

B3: AM4 (A17C, T18A) (dsDNA)
DNA 1: B2 DNA 1 with A32C, T33A
DNA 2: B2 DNA 2 with A19T, T20G
With B3, the binding result in data set [7] is recorded as “binds”.

B4: AM3 (T18A) (dsDNA)
DNA 1: B2 DNA 1 with T33A
DNA 2: B2 DNA 2 with A19T
With B4, the binding result in data set [7] was “binds”.

B5: AM6 (A4T) (dsDNA)
DNA 1: B2 DNA 1 with A19T
DNA 2: B2 DNA 2 with T33A
With B5, the binding result in data set [8] is given as “binds”.

B6: AM7 (A3C) (dsDNA)
DNA 1: B2 DNA 1 with A18C
DNA 2: B2 DNA 2 with T34G
B6 yielded a Kd in data set [1] of 636 nM.

B7: AM2 (A4T, T18A) (dsDNA)
DNA 1: B2 DNA 1 with A19T, T33A
DNA 2: B2 DNA 2 with A19T, T33A
On to B7, for which the binding result in data set [7] is given as “binds”.

B8: AM1 (T2A) (dsDNA)
DNA 1: B2 DNA 1 with T17A
DNA 2: B2 DNA 2 with A35T
For B8, binding in data set [1] was put at a Kd of 1690 nM.

B9: AM5 (A1T, A4T, A22T) (dsDNA)
DNA 1: B2 DNA 1 with A16T, A19T, A37T
DNA 2: B2 DNA 2 with T15A, T33A, T36A
On to B9, for which the binding result in data set [8] is recorded as “binds”.

B10: repDNA 51-bp probe (dsDNA)
DNA 1: CTAAATTTATCAATATTATTGATAAAATTATCAATATATTGTTCTACAGAT
DNA 2: ATCTGTAGAACAATATATTGATAATTTTATCAATAATATTGATAAATTTAG
Take B10: the Kd in data set [3] turned out to be 1060 nM; in data set [1] it was 157 nM; in data set [4] it was 434 nM.

Broadly, the Kd is a measure of binding affinity in units of concentration. High values mean weaker binding, low ones tighter binding.
